Results on eleven molecules are retold here after patent US20020164716A1 (GENETICS INSTITUTE, published 2002).

Sequences and labels used below:
T1: TNF-R1-DD ligand protein encoded by clone 1TU (Homo sapiens (Human), UniProt Q8TEL6 488-797)
T1 construct: partial clone
T1 sequence: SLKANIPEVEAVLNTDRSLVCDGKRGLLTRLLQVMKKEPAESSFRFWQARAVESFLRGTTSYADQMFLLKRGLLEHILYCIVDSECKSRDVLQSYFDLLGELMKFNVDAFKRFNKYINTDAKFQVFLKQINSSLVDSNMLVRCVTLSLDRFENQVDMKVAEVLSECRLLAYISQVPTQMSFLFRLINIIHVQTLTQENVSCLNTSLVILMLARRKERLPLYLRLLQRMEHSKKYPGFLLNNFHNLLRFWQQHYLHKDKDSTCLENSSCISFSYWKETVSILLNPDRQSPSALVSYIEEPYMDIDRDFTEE

T2: TNF-R1-DD ligand protein encoded by clone 3DD (Homo sapiens (Human), UniProt Q9H3U1 807-944)
T2 construct: partial clone
T2 sequence: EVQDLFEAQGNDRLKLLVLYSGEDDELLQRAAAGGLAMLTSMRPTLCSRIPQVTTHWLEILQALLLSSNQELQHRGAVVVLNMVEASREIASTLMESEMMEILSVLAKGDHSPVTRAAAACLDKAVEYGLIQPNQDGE

B1: death domain of the fas antigen (FasDD) (receptor, UniProt P25445 230-314, looked up)
chain: SKYITTIAGVMTLSQVKGFVRKNGVNEAKIDEIKNDNVQDTAEQKVQLLRNWHQLHGKKEAYDTLIKDLKKANLCTLAEKIQTII
notes: domain: death domain
B2: Drosophila transcription factor bicoid (other, UniProt P09081-2 2-160, looked up)
chain: AQPPPDQNFYHHPLPHTHTHPHPHSHPHPHSHPHPHHQHPQLQLPPQFRNPFDLLFDERTGAINYNYIRPYLPNQMPKPEELPDSLVMRRPRRTRTTFTSSQIAELEQHFLQGRYLTAPRLADLSAKLALGTAQVKIWFKNRRRRHKIQSDQHKDQSYE
B3: LexA-TNF-R1-DD fusion protein (death domain of the P55 type 1 TNF receptor) (receptor, UniProt P19438 355-442, looked up)
chain: DPATLYAVVENVPPLRWKEFVRRLGLSDHEIDRLELQNGRCLREAQYSMLATWRRRTPRREATLELLGRVLRDMDLLGCLEDIEEALC
notes: range 326-413; also called TNF-RDD; TNF-R death domain; not shown: LexA, bait fusion partner from plasmid pEG202
B4: TNF-R death domain mutant W378A (receptor, UniProt P19438 355-442, looked up)
chain: B3 chain with W53A
notes: range 326-413; Numbering as printed, see the note of m7; not shown: LexA, bait fusion partner from plasmid pEG202
B5: TNF-R death domain mutant I408A (receptor, UniProt P19438 355-442, looked up)
chain: B3 chain with I83A
notes: as for B4
B6: TNF-R1-DD expressed as a GST fusion protein (receptor)
chain: B3 chain
notes: range 326-413; Purified, bacterially expressed, held on glutathione beads; Numbering: see the note of m7; also called GST-TNF-R1-DD; GST/TNF-R1-DD; not shown: glutathione-S-transferase (GST) from a pGEX vector (Pharmacia)
B7: TNF-R death domain mutant L351A (receptor, UniProt P19438 355-442, looked up)
chain: B3 chain with L26A
notes: as for B4
B8: TNF-R death domain mutant F345A (receptor, UniProt P19438 355-442, looked up)
chain: B3 chain with F20A
notes: as for B4
B9: intracellular domain of the second TNF-R (TNF-R p75IC) (receptor, UniProt P20333 288-461, looked up)
chain: KKKPLCLQREAKVPHLPADKARGTQGPEQQHLLITAPSSSSSSLESSASALDRRAPTRNQPQAPGVEASGAGEARASTGSSDSSPGGHGTQVNVTCIVNVCSSSDHSSQCSSQASSTMGDTDSSPSESPKDEQVPFSKEECAFRSQLETPETLLGSTEEKPLPLGVPDAGMKPS
notes: domain: intracellular domain; also called TNF-R p75JC
B10: TNF-R1-DD ligand protein encoded by clone 20DD (ligand, not shown: large carriers)
chain: EKPLHALLHGRGVCLNEKSYREQVKIERDSREHEEPTTSEMAEETYSPKIFRPKHTRISELKAEAVKKDRRKKLTQSKFVGGAENTAHPRIISEPEMRQESEQGPCRRHMEASLQELKASPRMVPRAVYLPNCDRKGFYKRKQCKPSRGRKRGICWCVDKYGMKLPGMEYVDGDFQCHTFDSSNVE
B11: entire intracellular domain of TNF-R (TNF-R p55IC) (receptor, UniProt P19438 233-455, looked up)
chain: MYRYQRWKSKLYSIVCGKSTPEKEGELEGTTTKPLAPNPSFSPTPGFTPTLGFSPVPSSTFTSSSTYTPGDCPNFAAPRREVAPPYQGADPILATALASDPIPNPLQKWEDSAHKPQSLDTDDPATLYAVVENVPPLRWKEFVRRLGLSDHEIDRLELQNGRCLREAQYSMLATWRRRTPRREATLELLGRVLRDMDLLGCLEDIEEALCGPAALPPAPSLLR
notes: domain: entire intracellular domain; also called TNF-R p55JC; cytoplasmic domain of the p55 TNF-R

For experiment [1], the target named is T1, TNF-R1-DD ligand protein encoded by …. Description: yeast interaction trap, panel of baits. The source says: (§1) The ability of these clones to bind the TNF-R death domain was compared to their binding to the intracellular domain of the second TNF-R (TNF-R p75IC), the entire intracellular domain of TNF-R (TNF-R p55IC), the death domain of the fas antigen (which shares 28% identity with TNF-R-DD) (FasDD), the Drosophila transcription factor bicoid, and a region of the IL-1 receptor known to be critical for signalling (IL-1R₄₇₇₋₅₂₇).

Experiment [2] deals with T3, TNF-R1-DD ligand protein encoded by clone 27TU (Homo sapiens (Human), UniProt Q8WXG6 1002-1647).
T3 construct: partial clone
T3 sequence (Q8WXG6 other isoform, or with tags, fused parts or gaps): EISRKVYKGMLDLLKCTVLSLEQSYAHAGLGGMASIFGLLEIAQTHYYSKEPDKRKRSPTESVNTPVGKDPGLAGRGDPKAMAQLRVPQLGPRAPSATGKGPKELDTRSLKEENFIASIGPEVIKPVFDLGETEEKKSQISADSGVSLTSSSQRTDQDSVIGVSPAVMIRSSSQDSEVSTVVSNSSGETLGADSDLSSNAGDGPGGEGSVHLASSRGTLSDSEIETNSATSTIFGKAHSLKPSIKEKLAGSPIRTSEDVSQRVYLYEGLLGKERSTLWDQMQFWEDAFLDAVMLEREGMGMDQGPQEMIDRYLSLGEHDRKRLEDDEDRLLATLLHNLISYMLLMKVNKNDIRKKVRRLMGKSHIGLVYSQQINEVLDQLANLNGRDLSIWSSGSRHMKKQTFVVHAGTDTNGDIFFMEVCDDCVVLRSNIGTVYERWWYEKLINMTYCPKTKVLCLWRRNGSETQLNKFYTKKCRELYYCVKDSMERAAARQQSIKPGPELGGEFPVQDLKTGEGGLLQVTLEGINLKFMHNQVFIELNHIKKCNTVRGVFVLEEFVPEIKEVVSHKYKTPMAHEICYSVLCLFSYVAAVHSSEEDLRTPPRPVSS
The experiment is described as follows: yeast interaction trap, panel of baits.
From the text: as §1

For experiment [3], the target named is T4, protein encoded by clone 15TU (Homo sapiens (Human), UniProt Q8WXG6 1329-1647).
T4 construct: The limits 289-607 are printed as approximate
T4 sequence (Q8WXG6 1329-1647): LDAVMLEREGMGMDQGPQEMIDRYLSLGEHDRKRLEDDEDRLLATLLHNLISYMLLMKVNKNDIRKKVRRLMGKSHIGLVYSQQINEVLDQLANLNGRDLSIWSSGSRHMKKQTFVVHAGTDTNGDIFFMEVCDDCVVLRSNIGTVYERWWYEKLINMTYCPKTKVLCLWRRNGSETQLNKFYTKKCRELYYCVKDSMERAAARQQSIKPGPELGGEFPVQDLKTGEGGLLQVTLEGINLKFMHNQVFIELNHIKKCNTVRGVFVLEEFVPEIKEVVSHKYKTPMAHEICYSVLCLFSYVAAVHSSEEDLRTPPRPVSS
Description: yeast interaction trap, panel of baits.
From the text: as §1

Experiment [4] concerns the target T1, TNF-R1-DD ligand protein encoded by …. Description: yeast interaction trap, wild type against death domain mutants.
The target of experiment [5] is T4, protein encoded by clone 15TU. The description is as above.
The target in experiment [6] is T2, TNF-R1-DD ligand protein encoded by …. The experiment is described as follows: yeast interaction trap, panel of baits. From the text: (§2) A yeast genetic selection method, the “interaction trap” [Gyuris et al, Cell 75:791-803, 1993, which is incorporated herein by reference], was used to screen WI38 cell cDNA libraries (preparation, see below) for proteins that interact with the death domain of the P55 type 1 TNF receptor (TNF-R1-DD). A polynucleotide encoding amino acids 326 to 413 of the P55 type TNF receptor, TNF-R1-DD, was obtained via the polymerase chain reaction (PCR) using a grafting method. This TNF-R1-DD DNA was then cloned into pEG202 by BamHI and SalI sites, generating the bait plasmid, pEG202-TNF-R1-DD. This plasmid contains the HIS3 selectable marker, and expression of the bait, the LexA-TNF-R1-DD fusion protein, is from the strong constitutive ADH1 promoter. To create the reporter strain carrying the bait protein, yeast strain EGY48, containing the reporter sequence LexAop-Leu2 in place of the chromosomal LEU2, was transformed with pEG202-TNF-R1-DD and pSH18-34 (Ura+), which carries another reporter sequence, LexAop-lacZ. For screening cDNAs encoding proteins that interact with TNF-R1-DD, the expression vector pJG4-5 (TRP1), containing the WI38 cell cDNA library (see below for the cDNA library construction), was transformed into the above strain (EGY48/pEG202-TNF-R1-DD/pSH18-34) according to the method described by Gietz et al., Nucleic Acids Res., 20:1425 (1992).
(§3) The clones “2DD,” “3DD” and “20DD” were chosen for further analysis. Library vector pJG4-5 containing these clones sequences were rescued from yeast by transforming the total yeast DNAs into the E. coli strain KC8 and selecting for growth on Trp-ampicillin plates.

The target in experiment [7] is T5, TNF-R1-DD ligand protein encoded by clone 2DD (Homo sapiens (Human), UniProt Q8WXG6 1217-1647).
T5 construct: partial clone of a longer protein
T5 sequence (Q8WXG6 other isoform, or with tags, fused parts or gaps): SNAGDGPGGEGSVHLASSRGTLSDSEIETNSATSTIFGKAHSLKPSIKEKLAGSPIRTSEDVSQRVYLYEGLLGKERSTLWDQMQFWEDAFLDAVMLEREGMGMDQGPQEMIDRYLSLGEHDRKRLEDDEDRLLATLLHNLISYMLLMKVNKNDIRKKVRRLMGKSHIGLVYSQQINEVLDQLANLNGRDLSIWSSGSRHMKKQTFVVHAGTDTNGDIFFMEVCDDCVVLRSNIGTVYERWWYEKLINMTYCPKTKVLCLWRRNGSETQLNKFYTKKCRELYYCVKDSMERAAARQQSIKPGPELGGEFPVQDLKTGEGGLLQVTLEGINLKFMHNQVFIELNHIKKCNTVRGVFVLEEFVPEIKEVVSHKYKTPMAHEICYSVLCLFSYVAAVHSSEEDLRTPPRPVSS
Description: yeast interaction trap, panel of baits.
From the text: as §2, §3

Experiment [8] deals with T1, TNF-R1-DD ligand protein encoded by …. Description: yeast interaction trap, death domain mutants. As for the experimental part:
(§4) The ability of each clone to interact with four single-site mutations in the TNF-R death domain (each known to abolish signalling) was measured.

The target of experiment [9] is T3, TNF-R1-DD ligand protein encoded by …. The experiment is described as follows: yeast interaction trap, death domain mutants. As for the experimental part:
as §4

For experiment [10], the target named is T4, protein encoded by clone 15TU. The experiment is described as follows: yeast interaction trap, death domain mutants. The procedure:
as §4

The target in the next experiment is MBP protein (UniProt P0AEX9 27-392 = MBP). Description: pull-down on glutathione beads, Western blot with anti-MBP antibody. As for the experimental part: The reaction ws performed at 4° C. for 2 hours and centrifuged to remove unbound fraction (Unbound). The beads were then washed with 500 μl binding buffer four times and resuspended into SDS-sample buffer (Bound).
(In general: In western blotting, separated proteins are transferred to a membrane and probed.)

The target of experiment [11] is B3. The experiment is described as follows: yeast interaction trap, panel of baits.
From the text: as §2, §3

Changes are numbered by the printed parent chain.

For B1, the binding result in experiment [1], in experiment [2] and in experiment [3] was “no binding” throughout.

Consider B2, for which the binding result in experiment [2] and in experiment [3] was “no binding” each time.

Take B3: the binding result in experiment [2], in experiment [4], in [5], in [6] and in [7] was “binds” each time.

Regarding B4, the binding result in [8], in experiment [9] and in [10] was “binds” each time.

Regarding B5, the binding result in experiment [8], in experiment [9] and in experiment [10] was “binds” throughout.

With B6, in the experiment with MBP protein, the binding result is recorded as “no binding (tested: 3 µg)”.

As for B7, the binding result in experiment [8], in experiment [9] and in [10] was “binds” each time.

Regarding B8, the binding result in [8], in [9] and in [10] was “binds” throughout.

As for B9, the binding result in experiment [1] and in experiment [2] was “no binding” throughout.

Turning to B10, in experiment [11], the binding result is recorded as “binds”.

Consider B11, for which the binding result in [1], in [2] and in experiment [3] was “binds” each time.
